Measurements from paper PMC4973239, “Crystal structure of the human Tip41 orthologue, TIPRL, reveals a novel fold and a binding site for the PP2Ac C-terminus” (Scientific Reports, 2016).

T1: TIPRLΔN, His tag removed with TEV protease (human, UniProt O75663-1 16-272)
T1 construct: plasmid-derived residues left at the N-terminus after TEV cleavage; they form strand β1; TIPRL (TIP41, TOR signaling pathway regulator-like), human, NP_690866.1, with a 15-residue N-terminal deletion; TEV cleavage was usually incomplete; The last 16 C-terminal residues are disordered in the crystal; also called TIPRL (crystal structure); source: E. coli BL21(DE3), purified (Ni Sepharose, TEV …)
T1 sequence: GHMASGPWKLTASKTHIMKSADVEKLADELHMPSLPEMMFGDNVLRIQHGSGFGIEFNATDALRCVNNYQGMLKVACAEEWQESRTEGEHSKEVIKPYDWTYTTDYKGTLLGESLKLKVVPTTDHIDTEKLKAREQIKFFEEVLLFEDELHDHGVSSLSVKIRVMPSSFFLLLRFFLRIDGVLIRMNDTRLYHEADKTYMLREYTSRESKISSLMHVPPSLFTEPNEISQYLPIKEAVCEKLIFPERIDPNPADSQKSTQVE

B1: peptide generated after cleavage with the TEV protease (MGHHHHHHENLYFQ) (peptide)
peptide: MGHHHHHHENLYFQ
notes: hexa-histidine tag and TEV cleavage site of the vector pET-TEV, as released by TEV protease; only LYFQ (site on chain A) or ENLYFQ (site on chain B) is seen in the density; also called TEV site peptide; TEV-derived peptide; source: E. coli BL21(DE3)

Key:
[1] = target: TIPRLΔN, His tag removed with TEV protease (human) (UniProt O75663); test: SEC; size exclusion profiles under different conditions (Fig. S1B), high concentration; HiLoad 26/60 Superdex 75 pg, Tris 20 mM pH 7.5, 100 mM NaCl, 10 mM β-mercaptoethanol
[2] = target: T1, TIPRLΔN, His tag removed with TEV …; test: crystal structure; TIPRLΔN after TEV cleavage, 70–100 mg/ml; hanging drop at 18 °C, phosphate or SPG buffer pH 5.5–6.7, 2 to 3 M NaCl; two molecules in the asymmetric unit; 2.15 Å; details: both partners purified

Row | Molecule | stoichiometry N [1] | binding result [2]
1 | TIPRLΔN, His tag removed with TEV protease (from UniProt O75663-1 16-272) (domain or fragment) | 2 | 
2 | B1 |  | binds
